The source of these data is patent US20060172935A1 (published 2006).

The target of assay [1] is PKR2 stably expressed in Chinese Hamster Ovary cells (CHO-PKR2). The experiment in a line: cell-based or functional assay.
A further assay concerns the target T1, mouse PK2 receptor (mouse, UniProt Q8K458 1-381).
T1 construct: G-protein coupled receptor; also called PKR2; mouse PKR2
Briefly: PK2 receptor binding assay with radioiodinated ligand (FIG. 11). The text has this: An exemplary assay for determining binding of detectably labeled PK2, PK1 or PK2/PK1 chimera to PK2 receptor or PK1 receptor is the radioligand filter binding assay described in Li et al. Molecular Pharmacology 59:692-698 (2001)). […] A variety of other low- and high-throughput assays suitable for detecting selective binding interactions between a receptor and a ligand are known in the art. Such assays include, for example, fluorescence correlation spectroscopy (FCS) and scintillation proximity assays (SPA) reviewed in Major, J. Receptor and Signal Transduction Res. 15:595-607 (1995); and in Sterrer et al., J. Receptor and Signal Transduction Res. 17:511-520 (1997)). Binding assays can be performed in any suitable assay format including, for example, cell preparations such as whole cells or membranes that contain PK2 receptor or PK1 receptor, or substantially purified PK2 receptor polypeptide or PK1 receptor, either in solution or bound to a solid support.

T1 sequence (Q8K458 whole entry): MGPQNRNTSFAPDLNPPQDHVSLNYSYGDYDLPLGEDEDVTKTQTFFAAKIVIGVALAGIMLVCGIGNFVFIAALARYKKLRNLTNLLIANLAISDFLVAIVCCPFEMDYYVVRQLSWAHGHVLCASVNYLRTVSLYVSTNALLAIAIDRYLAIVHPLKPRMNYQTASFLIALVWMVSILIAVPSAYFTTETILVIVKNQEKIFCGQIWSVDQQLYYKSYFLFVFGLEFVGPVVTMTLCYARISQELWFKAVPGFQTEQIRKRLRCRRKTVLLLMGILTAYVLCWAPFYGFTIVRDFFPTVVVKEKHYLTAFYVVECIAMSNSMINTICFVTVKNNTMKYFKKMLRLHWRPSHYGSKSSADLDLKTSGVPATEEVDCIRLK

For “purified recombinant mouse PK2 (from UniProt Q9QXU7 27-128) (ligand)”, in assay [1], the EC50, calcium mobilization came out at 7.3 nM and the fold stimulation of CLOCK:BMAL1-mediated transcription of the 2.8 kb PK2 promoter (luciferase) is 4 fold.

B1: 125I-human PK2 (iodinated human prokineticin 2) (ligand)
chain: AVITGACDKDSQCGGGMCCAVSIWVKSIRICTPMGKLGDSCHPLTRKVPFFGRRMHHTCPCLPGLACLRTSFNRFICLAQK
modifications: radioiodinated with 125I (residue not stated for this assay)
notes: also called iodinated PK2
Regarding B1, the Kd (in general, the free concentration of one partner at which half of the binding sites on the other are occupied at equilibrium, for simple one-to-one binding) in the assay with mouse PK2 receptor is ~1 nM.
